Data as given in patent publication US11325966.

Key:
Experiment in all cases: cell-based or functional assay
[1] = biological target: HIV-1 Env of pseudovirus BJOX015000.11.5 (HIV-1)
[2] = biological target: HIV-1 Env of pseudovirus CNE58 (HIV-1)
[3] = biological target: HIV-1 Env of pseudovirus Q842.d12 (HIV-1)
[4] = biological target: HIV-1 Env of pseudovirus THRO4156.18 (HIV-1)
[5] = biological target: HIV-1 Env of pseudovirus 9004SS_A3_4 (HIV-1)
[6] = biological target: HIV-1 Env of pseudovirus Q259.d2.17 (HIV-1)
[7] = biological target: HIV-1 Env of pseudovirus X2131_C1_B5 (HIV-1)
[8] = biological target: HIV-1 Env of pseudovirus C1080.c03 (HIV-1)
[9] = biological target: HIV-1 Env of pseudovirus 1054_07_TC4_1499 (HIV-1)
[10] = biological target: HIV-1 Env of pseudovirus X1632_S2_B10 (HIV-1)
[11] = biological target: HIV-1 Env of pseudovirus Ce1086_B2 (HIV-1)
[12] = biological target: HIV-1 Env of pseudovirus TRJO4551.58 (HIV-1)
[13] = biological target: HIV-1 Env of pseudovirus ZM249M.PL1 (HIV-1)
[14] = biological target: HIV-1 Env of pseudovirus Q23.17 (HIV-1)
[15] = biological target: HIV-1 Env of pseudovirus Ce1172_H1 (HIV-1)
[16] = biological target: HIV-1 Env of pseudovirus CNE53 (HIV-1)
[17] = biological target: HIV-1 Env of pseudovirus CNE8 (HIV-1)
[18] = biological target: HIV-1 Env of pseudovirus Ce2060_G9 (HIV-1)
[19] = biological target: HIV-1 Env of pseudovirus P0402_c2_11 (HIV-1)
[20] = biological target: HIV-1 Env of pseudovirus Q461.e2 (HIV-1)
[21] = biological target: HIV-1 Env of pseudovirus Ce1176_A3 (HIV-1)
[22] = biological target: HIV-1 Env of pseudovirus C4118.c09 (HIV-1)
[23] = biological target: HIV-1 Env of pseudovirus BJOX028000.10.3 (HIV-1)
[24] = biological target: HIV-1 Env of pseudovirus CNE52 (HIV-1)
[25] = biological target: HIV-1 Env of pseudovirus C2101.c01 (HIV-1)
[26] = biological target: HIV-1 Env of pseudovirus RHPA4259.7 (HIV-1)
[27] = biological target: HIV-1 Env of pseudovirus 62357_14_D3_4589 (HIV-1)
[28] = biological target: HIV-1 Env of pseudovirus 6952.v1.c20 (HIV-1)
[29] = biological target: HIV-1 Env of pseudovirus T250-4 (HIV-1)
[30] = biological target: HIV-1 Env of pseudovirus CNE21 (HIV-1)
[31] = biological target: HIV-1 Env of pseudovirus 6041.v3.c23 (HIV-1)
[32] = biological target: HIV-1 Env of pseudovirus 928-28 (HIV-1)
[33] = biological target: HIV-1 Env of pseudovirus 3016.v5.c45 (HIV-1)
[34] = biological target: HIV-1 Env of pseudovirus 191821_E6_1 (HIV-1)
[35] = biological target: HIV-1 Env of pseudovirus 231966.c02 (HIV-1)
[36] = biological target: HIV-1 Env of pseudovirus Du172.17 (HIV-1)
[37] = biological target: HIV-1 Env of pseudovirus BJOX025000.01.1 (HIV-1)
[38] = biological target: HIV-1 Env of pseudovirus TRO.11 (HIV-1)
[39] = biological target: HIV-1 Env of pseudovirus 3365.v2.c2 (HIV-1)
[40] = biological target: HIV-1 Env of pseudovirus HIV-16055-2.3 (HIV-1)

**Q.** What does the source list for BG18 IgG (354BG18) (antibody)?
**A.** IC50 in TZM-bl assay [1]: > 30 µg/mL; IC80 in TZM-bl assay [1]: > 30 µg/mL; IC50 in TZM-bl assay [2]: 0.024 µg/mL; IC80 in TZM-bl assay [2]: 0.073 µg/mL; IC50 in TZM-bl assay [3]: 14 µg/mL; IC80 in TZM-bl assay [3]: > 30 µg/mL; IC50 in TZM-bl assay [4]: > 30 µg/mL; IC80 in TZM-bl assay [4]: > 30 µg/mL; IC50 in TZM-bl assay [5]: 0.005 µg/mL; IC80 in TZM-bl assay [5]: 0.056 µg/mL; IC50 in TZM-bl assay [6]: > 30 µg/mL; IC80 in TZM-bl assay [6]: > 30 µg/mL; IC50 in TZM-bl assay [7]: 0.002 µg/mL; IC80 in TZM-bl assay [7]: 0.008 µg/mL; IC50 in TZM-bl assay [8]: 5.37 µg/mL; IC80 in TZM-bl assay [8]: > 30 µg/mL; IC50 in TZM-bl assay [9]: 0.005 µg/mL; IC80 in TZM-bl assay [9]: 0.022 µg/mL; IC50 in TZM-bl assay [10]: > 30 µg/mL; IC80 in TZM-bl assay [10]: > 30 µg/mL; IC50 in TZM-bl assay [11]: > 30 µg/mL; IC80 in TZM-bl assay [11]: > 30 µg/mL; IC50 in TZM-bl assay [12]: 3.34 µg/mL; IC80 in TZM-bl assay [12]: 26.9 µg/mL; IC50 in TZM-bl assay [13]: > 30 µg/mL; IC80 in TZM-bl assay [13]: > 30 µg/mL; IC50 in TZM-bl assay [14]: 0.006 µg/mL; IC80 in TZM-bl assay [14]: 0.02 µg/mL; IC50 in TZM-bl assay [15]: 0.002 µg/mL; IC80 in TZM-bl assay [15]: 0.007 µg/mL; IC50 in TZM-bl assay [16]: 0.003 µg/mL; IC80 in TZM-bl assay [16]: 0.011 µg/mL; IC50 in TZM-bl assay [17]: > 30 µg/mL; IC80 in TZM-bl assay [17]: > 30 µg/mL; IC50 in TZM-bl assay [18]: > 30 µg/mL; IC80 in TZM-bl assay [18]: > 30 µg/mL; IC50 in TZM-bl assay [19]: 0.005 µg/mL; IC80 in TZM-bl assay [19]: 0.029 µg/mL; IC50 in TZM-bl assay [20]: > 30 µg/mL; IC80 in TZM-bl assay [20]: > 30 µg/mL; IC50 in TZM-bl assay [21]: 0.004 µg/mL; IC80 in TZM-bl assay [21]: 0.012 µg/mL; IC50 in TZM-bl assay [22]: > 30 µg/mL; IC80 in TZM-bl assay [22]: > 30 µg/mL; IC50 in TZM-bl assay [23]: 0.474 µg/mL; IC80 in TZM-bl assay [23]: 14.9 µg/mL; IC50 in TZM-bl assay [24]: 0.012 µg/mL; IC80 in TZM-bl assay [24]: 0.045 µg/mL; IC50 in TZM-bl assay [25]: > 30 µg/mL; IC80 in TZM-bl assay [25]: > 30 µg/mL; IC50 in TZM-bl assay [26]: 1.44 µg/mL; IC80 in TZM-bl assay [26]: > 30 µg/mL; IC50 in TZM-bl assay [27]: 3.01 µg/mL; IC80 in TZM-bl assay [27]: > 30 µg/mL; IC50 in TZM-bl assay [28]: 0.005 µg/mL; IC80 in TZM-bl assay [28]: 0.011 µg/mL; IC80 in TZM-bl assay [29]: 0.006 µg/mL; IC50 in TZM-bl assay [30]: 0.002 µg/mL; IC80 in TZM-bl assay [30]: 0.007 µg/mL; IC50 in TZM-bl assay [31]: > 30 µg/mL; IC80 in TZM-bl assay [31]: > 30 µg/mL; IC50 in TZM-bl assay [32]: 0.761 µg/mL; IC80 in TZM-bl assay [32]: 3.93 µg/mL; IC50 in TZM-bl assay [33]: > 30 µg/mL; IC80 in TZM-bl assay [33]: > 30 µg/mL; IC50 in TZM-bl assay [34]: 14.1 µg/mL; IC80 in TZM-bl assay [34]: > 30 µg/mL; IC50 in TZM-bl assay [35]: > 30 µg/mL; IC80 in TZM-bl assay [35]: > 30 µg/mL; IC50 in TZM-bl assay [36]: > 30 µg/mL; IC80 in TZM-bl assay [36]: > 30 µg/mL; IC50 in TZM-bl assay [37]: > 30 µg/mL; IC80 in TZM-bl assay [37]: > 30 µg/mL; IC80 in TZM-bl assay [38]: 0.002 µg/mL; IC50 in TZM-bl assay [39]: 0.013 µg/mL; IC80 in TZM-bl assay [39]: 0.037 µg/mL; IC50 in TZM-bl assay [40]: > 30 µg/mL; IC80 in TZM-bl assay [40]: > 30 µg/mL

**Q.** What does the source list for PGT121 (antibody)?
**A.** IC50 in TZM-bl assay [1]: > 10 µg/mL; IC80 in TZM-bl assay [1]: > 10 µg/mL; IC50 in TZM-bl assay [2]: > 10 µg/mL; IC80 in TZM-bl assay [2]: > 10 µg/mL; IC50 in TZM-bl assay [3]: 0.01 µg/mL; IC80 in TZM-bl assay [3]: 0.037 µg/mL; IC50 in TZM-bl assay [4]: > 10 µg/mL; IC80 in TZM-bl assay [4]: > 10 µg/mL; IC50 in TZM-bl assay [5]: 0.006 µg/mL; IC50 in TZM-bl assay [6]: 3.07 µg/mL; IC80 in TZM-bl assay [6]: > 10 µg/mL; IC80 in TZM-bl assay [7]: 0.037 µg/mL; IC50 in TZM-bl assay [8]: > 10 µg/mL; IC80 in TZM-bl assay [8]: > 10 µg/mL; IC50 in TZM-bl assay [9]: 0.041 µg/mL; IC80 in TZM-bl assay [9]: 0.299 µg/mL; IC50 in TZM-bl assay [10]: > 10 µg/mL; IC80 in TZM-bl assay [10]: > 10 µg/mL; IC50 in TZM-bl assay [11]: 0.003 µg/mL; IC50 in TZM-bl assay [12]: 0.802 µg/mL; IC80 in TZM-bl assay [12]: > 10 µg/mL; IC50 in TZM-bl assay [13]: > 10 µg/mL; IC80 in TZM-bl assay [13]: > 10 µg/mL; IC50 in TZM-bl assay [14]: 0.005 µg/mL; IC80 in TZM-bl assay [14]: 0.017 µg/mL; IC50 in TZM-bl assay [15]: 0.007 µg/mL; IC80 in TZM-bl assay [15]: 0.03 µg/mL; IC50 in TZM-bl assay [16]: 0.014 µg/mL; IC80 in TZM-bl assay [16]: 0.062 µg/mL; IC50 in TZM-bl assay [17]: > 10 µg/mL; IC80 in TZM-bl assay [17]: > 10 µg/mL; IC50 in TZM-bl assay [18]: > 10 µg/mL; IC80 in TZM-bl assay [18]: > 10 µg/mL; IC50 in TZM-bl assay [19]: 0.007 µg/mL; IC50 in TZM-bl assay [20]: > 10 µg/mL; IC80 in TZM-bl assay [20]: > 10 µg/mL; IC80 in TZM-bl assay [21]: 0.063 µg/mL; IC50 in TZM-bl assay [22]: > 10 µg/mL; IC80 in TZM-bl assay [22]: > 10 µg/mL; IC50 in TZM-bl assay [23]: > 10 µg/mL; IC80 in TZM-bl assay [23]: > 10 µg/mL; IC50 in TZM-bl assay [24]: 4.91 µg/mL; IC80 in TZM-bl assay [24]: > 10 µg/mL; IC50 in TZM-bl assay [25]: > 10 µg/mL; IC80 in TZM-bl assay [25]: > 10 µg/mL; IC50 in TZM-bl assay [26]: 0.013 µg/mL; IC80 in TZM-bl assay [26]: 0.046 µg/mL; IC50 in TZM-bl assay [27]: 6.21 µg/mL; IC80 in TZM-bl assay [27]: > 10 µg/mL; IC80 in TZM-bl assay [28]: 0.348 µg/mL; IC50 in TZM-bl assay [29]: 0.003 µg/mL; IC80 in TZM-bl assay [29]: 0.009 µg/mL; IC50 in TZM-bl assay [30]: 0.009 µg/mL; IC80 in TZM-bl assay [30]: 0.031 µg/mL; IC50 in TZM-bl assay [31]: > 10 µg/mL; IC80 in TZM-bl assay [31]: > 10 µg/mL; IC50 in TZM-bl assay [32]: > 10 µg/mL; IC80 in TZM-bl assay [32]: > 10 µg/mL; IC50 in TZM-bl assay [33]: > 10 µg/mL; IC80 in TZM-bl assay [33]: > 10 µg/mL; IC50 in TZM-bl assay [34]: > 10 µg/mL; IC80 in TZM-bl assay [34]: > 10 µg/mL; IC50 in TZM-bl assay [35]: > 10 µg/mL; IC80 in TZM-bl assay [35]: > 10 µg/mL; IC50 in TZM-bl assay [36]: 0.062 µg/mL; IC80 in TZM-bl assay [36]: 0.531 µg/mL; IC50 in TZM-bl assay [37]: > 10 µg/mL; IC80 in TZM-bl assay [37]: > 10 µg/mL; IC80 in TZM-bl assay [38]: 0.037 µg/mL; IC50 in TZM-bl assay [39]: 0.243 µg/mL; IC80 in TZM-bl assay [39]: 2.13 µg/mL; IC50 in TZM-bl assay [40]: 0.772 µg/mL; IC80 in TZM-bl assay [40]: 7.99 µg/mL
